Laboratory results published in the supplement of paper PMC9233669.
Fewer inactive variants are shown than the library holds.

Columns and labels:
biotinyl-Phe-oxazolone = test: self-aminoacylation, catalytic enhancement (BFO) (fold over background); higher = more active; k-Seq, kA / k0A0; sequences stand for … in GGGAAUGGAUCCACAUCUACGAAUUC…UUCACUGCAGACUUGACGAAGCUG
Outline: (§1)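 Working in 50 μL HEPES/NaCl/KCl/MgCl2/CaCl2 buffer with 5% acetonitrile at pH 6.9–7.0, mutagenized RNA pools (0.43 μM; 21-nt variable region) were reacted with 2–1250 μM of each biotinyl-aminoacyl-oxazolone for 90 minutes at room temperature. Streptavidin capture followed, with quantification by triplicate qPCR and Illumina sequencing. Catalytic enhancement is reported as median kA over the uncatalyzed rate, the low-activity peak of a bimodal Gaussian fit to the data.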

biotinyl-Ile-oxazolone = test: self-aminoacylation, catalytic enhancement (BIO) (fold over background); higher = more active; k-Seq, kA / k0A0; sequences stand for … in GGGAAUGGAUCCACAUCUACGAAUUC…UUCACUGCAGACUUGACGAAGCUG
Outline: as §1

biotinyl-Met-oxazolone = test: self-aminoacylation, catalytic enhancement (BMO) (fold over background); higher = more active; k-Seq, kA / k0A0; sequences stand for … in GGGAAUGGAUCCACAUCUACGAAUUC…UUCACUGCAGACUUGACGAAGCUG
Outline: as §1

biotinyl-Val-oxazolone = test: self-aminoacylation, catalytic enhancement (BVO) (fold over background); higher = more active; k-Seq, kA / k0A0; sequences stand for … in GGGAAUGGAUCCACAUCUACGAAUUC…UUCACUGCAGACUUGACGAAGCUG
Outline: as §1

biotinyl-Leu-oxazolone = test: self-aminoacylation, catalytic enhancement (BLO) (fold over background); higher = more active; k-Seq, kA / k0A0; sequences stand for … in GGGAAUGGAUCCACAUCUACGAAUUC…UUCACUGCAGACUUGACGAAGCUG
Outline: as §1

biotinyl-Trp-oxazolone = test: self-aminoacylation, catalytic enhancement (BWO) (fold over background); higher = more active; k-Seq, kA / k0A0; sequences stand for … in GGGAAUGGAUCCACAUCUACGAAUUC…UUCACUGCAGACUUGACGAAGCUG
Outline: as §1

Sequence	self-aminoacylation (biotinyl-Phe-oxazolone)	self-aminoacylation (biotinyl-Ile-oxazolone)	self-aminoacylation (biotinyl-Met-oxazolone)	self-aminoacylation (biotinyl-Val-oxazolone)	self-aminoacylation (biotinyl-Leu-oxazolone)	self-aminoacylation (biotinyl-Trp-oxazolone)
AAGUUUGCUGAUAGCCGCAAG [Fam3.1 aminoacylation ribozyme variant]	1.49	0.846	0.91	0.968	0.736	0.586
AAGUUUGCUGAUAGUAGCAAG [Fam3.1 aminoacylation ribozyme variant]	1.41	0.892	1.07	1.24	0.88	1.05
AAGUUUGCUGAUAGUCACAAG [Fam3.1 aminoacylation ribozyme variant]	1.23	1.15	1.2	1.28	1.08	1.62
AAGUUUGCUGAUAGUCCCAAG [Fam3.1 aminoacylation ribozyme variant]	0.972	1.17	0.626	0.847	0.786	1.08
AAGUUUGCUGAUAGUCGCCAG [Fam3.1 aminoacylation ribozyme variant]	4.26	1.38	1.41	1.53	2.22	1.44
AAGUUUGCUGAUAGUCGUAAG [Fam3.1 aminoacylation ribozyme variant]	0.944	0.854	0.951	0.93	0.674	0.823
AAGUUUGCUGAUUGUCGCAAG [Fam3.1 aminoacylation ribozyme variant]	1.02	0.948	1.09	1.02	1.11	1.37
AAGUUUGCUUAAAGUCGCAAG [Fam3.1 aminoacylation ribozyme variant]	1.07	0.972	0.754	0.897	0.896	1.1
AAGUUUGCUUAGAGUCGCAAG [Fam3.1 aminoacylation ribozyme variant]	0.969	0.725	0.757	0.785	0.592	1
AAGUUUGCUUAUAGUCGCCAG [Fam3.1 aminoacylation ribozyme variant]	0.665	1.08	0.883	0.955	0.933	1.08
AAGUUUGCUUAUAGUCGCUAG [Fam3.1 aminoacylation ribozyme variant]	1	0.884	0.705	0.646	0.628	0.61
AAGUUUGCUUAUAGUCUCAAG [Fam3.1 aminoacylation ribozyme variant]	1.41	1.05	1.08	0.888	0.902	0.69
AAGUUUGGCAAUAGUCGCAAG [Fam3.1 aminoacylation ribozyme variant]	1.92	1.79	1.49	1.42	1.4	1.49
AAGUUUGGUAAUAGUCGCAAG [Fam3.1 aminoacylation ribozyme variant]	2.13	1.32	1.22	1.19	1.25	1.38
AAGUUUGGUAAUAGUCGCACG [Fam3.1 aminoacylation ribozyme variant]	1.98	1.18	1.07	1.11	1.45	1.09
AAGUUUGGUAAUAGUCGUAAG [Fam3.1 aminoacylation ribozyme variant]	1.44	1.04	0.961	0.916	0.801	1.11
AAGUUUGUUAAUAGGCGCAAG [Fam3.1 aminoacylation ribozyme variant]	1.05	0.767	0.799	0.652	0.556	0.763
AAGUUUGUUAAUAGUCGUAAG [Fam3.1 aminoacylation ribozyme variant]	1.38	0.929	0.893	0.808	0.902	0.911
AAGUUUGUUGAUAGUCGCAAG [Fam3.1 aminoacylation ribozyme variant]	1.36	1.14	1.09	1.09	1.09	1.19
AAGUUUGUUUAUAGUCGCAAG [Fam3.1 aminoacylation ribozyme variant]	1.47	1.3	1.34	1.24	1.26	1.52
AAGUUUUCUAAGAGUCGCAAG [Fam3.1 aminoacylation ribozyme variant]	3.16	1.65	1.32	1.62	1.62	1.51
AAGUUUUCUAAUAGUCGCAAA [Fam3.1 aminoacylation ribozyme variant]	3.41	1.93	1.54	1.54	1.41	2.46
AAUACCCGGGUCAUCGAGUGA [Fam2.1 aminoacylation ribozyme variant]	34.7	3.72	5.22	3.64	6.7	7.23
AAUACCCUGGGCAUCGAGUGA [Fam2.1 aminoacylation ribozyme variant]	8.76	1.8	3.75	2.29	3.79	3.44
AAUACCCUGGUCAUAGAGUGA [Fam2.1 aminoacylation ribozyme variant]	10.7	2.68	4.64	2.3	4.68	5.58
AAUACCCUGGUCAUCGAAUGA [Fam2.1 aminoacylation ribozyme variant]	0.529	0.855	0.76	0.781	0.724	1.17

Sequence	self-aminoacylation (biotinyl-Phe-oxazolone)	self-aminoacylation (biotinyl-Ile-oxazolone)	self-aminoacylation (biotinyl-Met-oxazolone)	self-aminoacylation (biotinyl-Val-oxazolone)	self-aminoacylation (biotinyl-Leu-oxazolone)	self-aminoacylation (biotinyl-Trp-oxazolone)
AAUCACCUAGCUCAUCGGGUG [Fam2.2 aminoacylation ribozyme variant]	17.7	2.33	2.82	3.17	2.31	3.68
AAUCACCUAGGACAUCGGGUG [Fam2.2 aminoacylation ribozyme variant]	19.1	3.91	4.09	3.32	3.27	5.94
AAUCACCUAGGUCAUCGGGGG [Fam2.2 aminoacylation ribozyme variant]	10.6	2.91	3.21	2.77	3.66	3.96
AAUCACCUAGGUCAUCGGGUA [Fam2.2 aminoacylation ribozyme variant]	52.7	7.76	12	7.24	14.7	10.5
AAUCACCUAGGUGAUCGGGUG [Fam2.2 aminoacylation ribozyme variant]	27.7	4.6	5.43	4.03	4.84	5.05
AAUCACCUCGGUCAUCGGGUG [Fam2.2 aminoacylation ribozyme variant]	31.2	4.07	4.76	5.23	4.99	7.61
AAUCAUCUAGGUCAUCGGGUG [Fam2.2 aminoacylation ribozyme variant]	41.3	4.54	5.64	4.6	5.48	7.01
AAUCUCCUAGGUCAUCGGGUG [Fam2.2 aminoacylation ribozyme variant]	35.1	4.3	6.93	4.51	6.83	5.91
AAUUGUGCUAAUAGUCGCAAG [Fam3.1 aminoacylation ribozyme variant]	3.05	1.93	2.02	1.75	2.18	2.44
AAUUUUGCUAAUCGUCGCAAG [Fam3.1 aminoacylation ribozyme variant]	2.37	1.91	1.53	1.56	1.37	1.62
AAUUUUGCUAGUAGUCGCAAG [Fam3.1 aminoacylation ribozyme variant]	2.34	2.02	1.77	1.36	1.56	1.71
AAUUUUGCUAUUAGUCGCAAG [Fam3.1 aminoacylation ribozyme variant]	2.76	1.98	1.71	1.63	1.89	1.85
AAUUUUGCUUAUAGUCGCAAG [Fam3.1 aminoacylation ribozyme variant]	3.02	2.39	2.17	2.14	2.29	2.28
AAUUUUUCUAAUAGUCGCAAG [Fam3.1 aminoacylation ribozyme variant]	3.68	1.88	1.7	1.75	1.75	1.54
ACACACCUCAAGCAAUCGGUC [Fam1B.1 aminoacylation ribozyme variant]	1.19	0.848	0.58	0.927	0.763	0.883
ACACACUUCAACCAAUCGGUC [Fam1B.1 aminoacylation ribozyme variant]	32.5	1.69	1.65	1.56	2.16	26.6
ACACACUUCAAGCAAACGGUC [Fam1B.1 aminoacylation ribozyme variant]	1.56	1.02	0.749	1.04	0.941	1.13
ACACACUUCAAGCAAGCGGUC [Fam1B.1 aminoacylation ribozyme variant]	2.18	1.6	1.33	1.73	1.52	1.74
ACACACUUCAAGCAAUAGGUC [Fam1B.1 aminoacylation ribozyme variant]	1.57	0.894	0.828	0.976	0.737	0.901
ACACACUUCAAGCAAUCGGCC [Fam1B.1 aminoacylation ribozyme variant]	4	2.7	2.21	2.57	2.54	6.35
ACACACUUCAAGCAAUCGGUG [Fam1B.1 aminoacylation ribozyme variant]	56.7	5.89	7.83	5.84	10.5	9.81
ACACACUUCAAGCAAUGGGUC [Fam1B.1 aminoacylation ribozyme variant]	1.04	0.996	1.03	0.947	0.794	1.03
ACACACUUCAAUCAAUCGGUC [Fam1B.1 aminoacylation ribozyme variant]	29.4	1.59	1.39	1.53	1.74	19.8
ACAGACUUCAAGCAAUCGGUC [Fam1B.1 aminoacylation ribozyme variant]	68.1	2.39	2.39	2.27	3.24	38.2
ACCCACCUAGGUCAUCGGGUG [Fam2.2 aminoacylation ribozyme variant]	54	5.07	5.93	5.64	5.88	6.03
